Results reported in patent US20250304624A1 (published 2025).
Positions of bridges follow the written chain, without caps; N, C: chain ends. Non-standard residues stand in square brackets, D forms with d. Groups on a side chain read outwards from the residue. *: point of attachment. PEG12 = NCCOCCOCCOCCOCCOCCOCCOCCOCCOCCOCCOCCOCCC(=O)O; Dip = N[C@H](C(=O)O)C(c1ccccc1)c1ccccc1; Palmitoyl = CCCCCCCCCCCCCCCC(=O)*; Isovaleryl = CC(C)CC(=O)*

Molecular target: T1, human ferroportin (SLC40A1) fused in frame with GFP, stably expressed in HEK293 cells (human, UniProt Q9NP59 1-571)
T1 sequence (looked up): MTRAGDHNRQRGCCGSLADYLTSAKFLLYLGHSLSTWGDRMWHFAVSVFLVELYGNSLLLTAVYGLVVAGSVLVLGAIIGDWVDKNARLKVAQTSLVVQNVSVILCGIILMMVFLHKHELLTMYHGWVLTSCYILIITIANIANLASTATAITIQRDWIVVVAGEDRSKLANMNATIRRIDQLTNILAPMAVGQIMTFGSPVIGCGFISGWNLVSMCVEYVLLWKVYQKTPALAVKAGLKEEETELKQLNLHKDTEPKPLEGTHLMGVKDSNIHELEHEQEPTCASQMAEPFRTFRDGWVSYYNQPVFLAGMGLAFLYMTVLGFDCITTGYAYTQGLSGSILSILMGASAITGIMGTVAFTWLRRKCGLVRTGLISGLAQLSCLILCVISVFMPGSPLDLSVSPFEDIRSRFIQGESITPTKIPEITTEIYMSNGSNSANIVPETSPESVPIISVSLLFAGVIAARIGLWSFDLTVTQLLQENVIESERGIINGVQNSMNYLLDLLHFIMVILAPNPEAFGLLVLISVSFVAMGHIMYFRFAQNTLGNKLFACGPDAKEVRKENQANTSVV
Assay: cell-based or functional assay

Isovaleryl-DIH[Dip]PCI[dK]FK([PEG12-Palmitoyl])[dK]C-NH2 (disulfide 6-12 (inferred)) [Compd ID 130]
FPN IC50: 0.069 µM
